Experimental data as given in patent publication US20190225652A1, “GENERATION OF PEPTIDES” (Hexima Limited, priority 2015, published 2019).

Tests used:
[1] = test system: rOaAEP1b, rOaAEP3, rOaAEP4 and rOaAEP5; assay: Cyclization assay with rOaAEP1b, rOaAEP3, rOaAEP4 and rOaAEP5 (MALDI/ESI MS); assay type: biochemical, Oldenlandia affinis; conditions: peptides with added AEP recognition residues, 280 μM, enzymes 19.7 μg mL^−1 total protein, MS
Description: Linear target peptides (280 μM, unless otherwise indicated) were incubated with rOaAEP1b, rOaAEP3, rOaAEP4 or rOaAEP5 (total protein concentration as indicated in the description of figures) in activity buffer (50 mM sodium acetate, 50 mM NaCl, 1 mM ethylenediaminetetraacetic acid [EDTA], 0.5 μM Tris(2-carboxyethyl)phosphine hydrochloride [TCEP], pH 5). The reaction was allowed to proceed for up to 22 hours at room temperature and was analysed by matrix-assisted laser desorption/ionization mass spectrometry (MALDI MS), high performance liquid chromatography (HPLC) or nuclear magnetic resonance (NMR) as appropriate.
(§1) Cyclization or inter-molecular ligation of linear target peptides was monitored by MALDI or ESI MS. In both cases, the reaction mixture (5-50 μL) was de-salted using C18 zip tips (Millipore) and eluted in 4 μL 50-75% v/v acetonitrile, 0.1% v/v trifluoroacetic acid (TFA).
(§2) For MALDI MS, a saturated MALDI matrix solution (α-cyano-4-hyroxycinnamic acid, CHCA, Bruker) prepared in 95% v/v acetonitrile, 0.1% v/v TFA was diluted 1:22 such that the final matrix solution comprised 90% v/v acetonitrile, 0.1% v/v TFA and 1 mM NH4H2PO4. Eluted samples were mixed 1:4 with the MALDI matrix, spotted onto a MALDI plate and analyzed by an Ultraflex III TOF/TOF (Bruker) in positive reflector mode. Data were analyzed using the flexAnalysis program (Bruker).
(§3) For ESI MS, 96 μl of 75% v/v acetonitrile, 01% v/v TFA was added to the de-salted sample. The sample was then injected into a MicroTOF Q (Bruker) and data was collected in positive ionisation mode. The mass of ligated or cyclized product was determined by charge deconvolution using the Compass DataAnalysis program (Bruker).
The ability of activated AEPs (rOaAEP1b, rOaAEP3, rOaAEP4 and rOaAEP5) to cyclize peptide substrates structurally unrelated to cyclotides was tested in the cyclization assay described in the Materials and Methods. The anti-malarial peptide R1 (Harris et al. (2009) J Biol Chem 284(14):9361-9371; Harris et al. (2005) Infect Immun 73(10):6981-6989); Bac2A, a linear derivative of the bovine peptide bactenecin (Wu and Hancock (1999) Antimicrob Agents Ch 43:1274-1276); and the anti-fungal peptide EcAMP1 (Nolde et al. (2011) J Biol Chem 286(28):25145-25153) were produced with additional AEP recognition residues and used as the substrates.
To investigate the sequence requirements for in vitro cyclization, R1 was used as a model peptide. The recognition residues added to this model peptide were sequentially trimmed to determine the minimal requirements for AEP-mediated cyclization. The N- and C-terminal recognition residues were also substituted with alternate amino acids to determine if particular classes of residues were preferred for cyclization by these recombinant AEPs. The ability of activated AEPs (rOaAEP1b, rOaAEP3, rOaAEP4 and rOaAEP5) to cyclize the R1 peptide with varied flanking sequences was then tested in the cyclization assay described in the Materials and Methods (FIG. 10; Table 3).

[2] = test system: rOaAEP1b, rOaAEP3, rOaAEP4 and rOaAEP5; assay: Intermolecular ligation assay with recombinant AEPs; assay type: biochemical, Oldenlandia affinis; conditions: target 140 μM, ligation partner GLK-biotin 700 μM, enzymes 19.7 μg mL^−1, 6 h, MALDI-MS
Description: Target peptides (140 μM) were incubated with a ligation partner peptide (700 μM) and a recombinant AEP (rOaAEP1b, rOaAEP3, rOaAEP4 or rOaAEP5 at 19.7 μg mL^−1 total protein) in activity buffer (50 mM sodium acetate, 50 mM NaCl, 1 mM EDTA, 0.5 μM TCEP, pH 5). The reaction was allowed to proceed for up to 22 hours at room temperature and was analysed by MALDI MS or electrospray ionisation (ESI) mass spectrometry as appropriate.
as §1, §2, §3
To investigate the ability of recombinantly produced AEPs to perform inter-molecular ligation (as well as the intra-molecular ligation required to produce backbone-cyclized peptides), target peptides were incubated with ligation partner peptides as well as active enzyme (FIG. 11). The appearance of new linear peptides were tracked. […]

[3] = Protease activity against fluorogenic substrate Z-AAN-MCA; assay type: biochemical; conditions: enzyme ~5 μg mL^−1 total protein, Z-AAN-MCA 100 μM, 37° C., 60 minutes
Description: FIG. 15 is a graphical representation of the activity of recombinant O. affinis AEPs (˜5 μg mL^−1 total protein) and rhuLEG (1 μg mL^−1 total protein) over time against the fluorogenic substrate Z-AAN-MCA (100 μM). Activity is tracked at 1 minute intervals at 37° C. for 60 minutes using excitation and emission wavelengths of 360 and 460 nm respectively. A single representative experiment is shown. RFU, relative fluorescence units.
To assay activity of recombinant AEPs (rOaAEP1b, rOaAEP3, rOaAEP4 or rOaAEP5) against both internally-quenched and other fluorescent peptides, substrate and enzyme were diluted as appropriate in activity buffer (50 mM sodium acetate, 50 mM NaCl, 1 mM EDTA, 0.5 μM TCEP, pH 5). To assay activity of recombinant human legumain (rhuLEG; R&D systems) against the same substrates, the enzyme was first activated by incubation in 50 mM sodium acetate, 100 mM NaCl, pH 4 (4 μL buffer/1 μL enzyme) for 2 hours at 37° C. Substrates and activated rhuLEG were diluted in 50 mM acetate, 0.1% v/v triton X 100, 0.5 μM TCEP pH 5.5 or in 50 mM MES, 250 mM NaCl, pH 5 as required. Diluted enzyme and substrate were added to black, flat bottomed microtiter plates in a total assay volume of 100-200 μL. The change in fluorescence intensity over time was monitored on a SpectraMax M2 (Molecular Devices) using excitation/emission wavelengths of 320/420 nm (IQF peptides) or 360/460 nm (other fluorescent peptides).
AEP activity has traditionally been tracked by monitoring cleavage of the fluorescent substrate Z-AAN-MCA (where Z is carboxybenzyl; MCA is 7-amido-4-methylcoumarin) [Saska et al. (2007) supra; Rotari et al. (2001) Biol. Chem. 382:953-959]. Cleavage C-terminal to the Asn liberates the fluorophore which then fluoresces to report substrate cleavage. […] They are Ac-YVAD-CHO, which is routinely used to identify AEP activity (Hatsugai et al. (2004) Science 305(5685): 855-858) and Ac-STRN-CHO, which represents the P1-P4 residues of the C-terminal kB1 cleavage site. These traditional routes of identifying AEP activity will therefore likely be ineffective for identification of AEPs with cyclizing ability.

[4] = test system: target peptide-linker-ubiquitin-6xHis fusion protein; assay: AEP-mediated processing of target peptides fused to ubiquitin; assay type: biochemical; conditions: kalata B1-ubiquitin 260 μg mL^−1, AEP 19.7 μg mL^−1 total protein, 22 h, SDS-PAGE/anti-6xHis Western blot
[5] = Protease activity against IQF peptides; assay type: biochemical; conditions: for P2′ substrate specificity (wt vs L31A IQF peptide): 50 μM IQF peptides, 37° C., initial velocity
Description: FIG. 3 is a graphical representation showing expression of active rOaAEP1b in E. coli. (A) Pooled rOaAEP1b-containing anion exchange fractions pre- and post-activation at low pH were diluted 1:14 and tested for activity against the wildtype internally quenched fluorescence (wtIQF) peptide (11 μM) [SEQ ID NO:21]. Baseline fluorescence from a no-substrate control has been subtracted and the relative fluorescence intensity (RFU) at t=90 minutes is reported. A single representative experiment of two technical replicates is shown. (B) Activated rOaAEP1b was captured by cation exchange and the final product analyzed by SDS-PAGE followed by (i) Instant blue staining and (ii) Western blotting with anti-AEP1b polyclonal rabbit serum.
FIGS. 17A and 17B are graphical representations of substrate specificity of plant and human AEPs for wt (SEQ ID NO:21) and L31A (SEQ ID NO:25) IQF peptide substrates. Initial velocity of recombinant O. affinis AEPs (˜10 μg mL^−1 total protein) (17A) and rhuLEG (1.1 μg mL^−1 total protein) (17B) against 50 μM IQF peptide substrates is shown. The assay was conducted at 37° C. The average of two technical replicates are shown and the error bars report the range.
To assay activity of recombinant AEPs (rOaAEP1b, rOaAEP3, rOaAEP4 or rOaAEP5) against both internally-quenched and other fluorescent peptides, substrate and enzyme were diluted as appropriate in activity buffer (50 mM sodium acetate, 50 mM NaCl, 1 mM EDTA, 0.5 μM TCEP, pH 5). […] The change in fluorescence intensity over time was monitored on a SpectraMax M2 (Molecular Devices) using excitation/emission wavelengths of 320/420 nm (IQF peptides) or 360/460 nm (other fluorescent peptides). […]
IQF peptides that incorporate the P1-P4 as well as the P1′-P4′ residues are, however, effectively targeted by recombinant O. affinis AEPs. These peptides contain a fluorescence donor/quencher pair, with fluorescence observed upon the spatial separation of this pair following enzymatic cleavage. […]

Molecule: GKVFAEFLPLFSKFGSRMHILKNGL (Target peptide; R1) [SEQ ID NO:83, R1 peptide derivative]
- cyclization of linear precursor peptide by recombinant AEPs [1]: poor substrate for backbone cyclization
- inter-molecular ligation, C-terminal labelling [2]: created a new linear peptide that incorporated a C-terminal biotin

B1: rOaAEP1b: recombinant Oldenlandia affinis asparaginyl endopeptidase OaAEP1b expressed in E. coli, activated (protein)
chain: MVRYLAGAVLLLVVLSVAAAVSGARDGDYLHLPSEVSRFFRPQETNDDHGEDSVGTRWAVLIAGSKGYANYRHQAGVCHAYQILKRGGLKDENIVVFMYDDIAYNESNPRPGVIINSPHGSDVYAGVPKDYTGEEVNAKNFLAAILGNKSAITGGSGKVVDSGPNDHIFIYYTDHGAAGVIGMPSKPYLYADELNDALKKKHASGTYKSLVFYLEACESGSMFEGILPEDLNIYALTSTNTTESSWCYYCPAQENPPPPEYNVCLGDLFSVAWLEDSDVQNSWYETLNQQYHHVDKRISHASHATQYGNLKLGEEGLFVYMGSNPANDNYTSLDGNALTPSSIVVNQRDADLLHLWEKFRKAPEGSARKEVAQTQIFKAMSHRVHIDSSIKLIGKLLFGIEKCTEILNAVRPAGQPLVDDWACLRSLVGTFETHCGSLSEYGMRHTRTIANICNAGISEEQMAEAASQACASIP
modifications: Oldenlandia affinis OaAEP1b
- activity against Z-AAN-MCA [3]: nor rOaAEP1b, rOaAEP3, rOaAEP4 or rOaAEP5 (FIG. 15) had detectable activity
- proportion of fusion protein enzymatically processed (loss of precursor) [4]: the bulk of the precursor was being enzymatically processed
- P2′ substrate specificity (wt vs L31A IQF peptide) [5]: preference for a bulky hydrophobic residue such as Leu at the P2′ position
- activity against IQF peptide following low pH activation ([5]; wt IQF peptide 11 μM, fractions diluted 1:14, 90 minutes, pre- vs post-activation): dramatically increased

B2: rhuLEG: recombinant human legumain (R&D systems), an AEP that preferentially functions as a hydrolase (protein, UniProt Q99538 18-323, looked up)
Legumain: VPIDDPEDGGKHWVVIVAGSNGWYNYRHQADACHAYQIIHRNGIPDEQIVVMMYDDIAYSEDNPTPGIVINRPNGTDVYQGVPKDYTGEDVTPQNFLAVLRGDAEAVKGIGSGKVLKSGPQDHVFIYFTDHGSTGILVFPNEDLHVKDLNETIHYMYKHKMYRKMVFYIEACESGSMMNHLPDNINVYATTAANPRESSYACYYDEKRSTYLGDWYSVNWMEDSDVEDLTKETLHKQYHLVKSHTNTSHVMQYGNKTISTMKVMQFQGMKRKASSPVPLPPVTHLDLTPSPDVPLTIMKRKLMNTN
- P2′ substrate specificity (wt vs L31A IQF peptide) [5]: not shared
